Results: US20250109210A1 (ABSCI, published 2025)

Assays:
[1] = target: T1, TL1A (UniProt O95150 72-251, limits assumed); test: selectivity ELISA: antibody pre-incubated with TL1A, inhibition of TL1A binding to plate-coated DcR3
T1 construct: also called TNFSF15
T1 sequence (looked up): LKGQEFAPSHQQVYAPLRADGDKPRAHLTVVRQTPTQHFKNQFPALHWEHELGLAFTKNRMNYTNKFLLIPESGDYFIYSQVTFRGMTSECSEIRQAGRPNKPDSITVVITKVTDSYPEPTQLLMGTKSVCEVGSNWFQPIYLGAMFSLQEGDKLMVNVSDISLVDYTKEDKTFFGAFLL

[2] = target: T1, TL1A; test: selectivity ELISA: antibody pre-incubated with TL1A, inhibition of TL1A binding to plate-coated DR3

B1: MK-7240 (antibody, V domains shown)
VH: QVQLVQSGAEVKKPGASVKVSCKASGFDIQDTYMHWVKQRPGQGLEWMGRIDPASGHTKYDPKFQVRVTITRDTSTSTVYLELSSLRSEDTAVYYCARSGGLPDVWGQGTTVTVSS
VL: EIVLTQSPGTLSLSPGERATLSCRASSSVSYMYWYQQKPGQAPRPLIYATSNLASGIPDRFSGSGSGTDFTLTISRLEPEDFAVYYCQQWEGNPRTFGGGTKLEIK
Binder B1 has an IC50 [1] of 3.6 µg/mL and an IC50 [2] of 6.3 µg/mL.
